Test [1] addresses T1, human PILRA, G78 variant, ectopically expressed on 293 cells (human, UniProt Q9UKJ1 20-303).
T1 construct: the cells are labelled G78; also called hA G78 OE; hA
Kind of test: screening summary, TCP groups.

Test [2] deals with cynomolgus PILRA, ectopically expressed on 293 cells (cynomolgus monkey). Kind of test: screening summary, TCP groups.
For test [3], the target named is T2, human PILRA, c-term His-Avi tag (human, UniProt Q9UKJ1 20-197, limits assumed).
T2 construct: not shown: C-terminal His-Avi tag
Kind of test: SPR (Biacore), antibody captured, PILRA as analyte. Summed up: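 Antibodies were captured at 10 μg/ml on an anti-huFc or anti-msFc CM5 surface, and human PILRA was flowed at 33, 100 and 300 nM in HBSTE/0.5% BSA, pH 7.4. The surface was regenerated with 10 mM glycine-HCl, pH 2.1, after each analyte. Curves were double-referenced with buffer injections.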

T2 sequence (Q9UKJ1 20-197 limits assumed): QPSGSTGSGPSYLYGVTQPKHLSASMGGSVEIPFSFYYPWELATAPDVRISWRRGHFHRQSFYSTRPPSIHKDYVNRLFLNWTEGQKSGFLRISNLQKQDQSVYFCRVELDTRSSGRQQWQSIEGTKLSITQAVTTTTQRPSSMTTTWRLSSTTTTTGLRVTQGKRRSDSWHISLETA
Sequence of cynomolgus PILRA, ectopically expressed on 293 cells (cynomolgus monkey) (chain, as listed by the source): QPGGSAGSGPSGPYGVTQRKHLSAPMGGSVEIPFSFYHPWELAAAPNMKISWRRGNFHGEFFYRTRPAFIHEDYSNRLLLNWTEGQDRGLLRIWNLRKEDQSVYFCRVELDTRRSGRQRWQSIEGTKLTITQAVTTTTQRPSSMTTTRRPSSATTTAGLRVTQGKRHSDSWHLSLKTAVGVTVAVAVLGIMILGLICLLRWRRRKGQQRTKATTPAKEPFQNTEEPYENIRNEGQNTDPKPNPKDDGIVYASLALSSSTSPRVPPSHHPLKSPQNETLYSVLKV
T1 sequence (Q9UKJ1 other isoform, or with tags, fused parts or gaps mutant): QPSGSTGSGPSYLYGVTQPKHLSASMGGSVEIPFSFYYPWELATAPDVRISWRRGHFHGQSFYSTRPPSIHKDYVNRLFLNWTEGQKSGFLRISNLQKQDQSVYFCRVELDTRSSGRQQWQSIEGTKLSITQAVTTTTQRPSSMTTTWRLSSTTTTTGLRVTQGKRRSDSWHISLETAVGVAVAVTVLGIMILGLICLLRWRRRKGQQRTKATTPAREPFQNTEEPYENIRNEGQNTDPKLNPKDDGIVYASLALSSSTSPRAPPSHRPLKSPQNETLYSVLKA

B1: D9 (antibody, V domains shown)
VH: QVQLKESGPGLVAPSQSLSITCSVSGFSLSSYAINWVREPPGKGLEWLGVIWTGGGTNYNSALKSRLSISKDNSKSQVFLKMNSLQTDDTARYYCARNSIYYDYDGFAYWGQGTLVTVSA
VL: DIQMTQSSSYLSVSLGGRVTITCKASDHINNWLAWYQQKPGNAPRLLISGATSLETGVPSRFSGSGSGKDYTLSITSLQTEDFTTYYCQQYWSTPYTFGGGTKLEIK
notes: second hybridoma campaign
As to B1, the binding result in test [1] is “binds”.

B2: C3 (antibody, V domains shown)
VH: EVHLQQSGPELVKPGASVKISCKASGYTFTDYYLNWVKLSLGKSLEWIGDINPNDGDTSYNQTFKGKATLTVDKSSSTAYMELRSLTSEDSAVYYCARRASSYYSNYGWYFDVWGTGTTVTVSS
VL: DILLTQSPAILSVSPGERVSFSCRASQSIGTSIHWYQQRTNGSPRLLIKFASESISGIPSRFSGSGSGTDFTLSINTVESEDIGDYYCQESNSWPTTFGAGTKLELK
notes: first hybridoma campaign
Take B2: the binding result in test [2] was “binds”. For the same molecule, in test [3], the affinity, expressed as Kd, was 8.3 nM; the koff was 0.0042 s⁻¹; the kon came out at 510000 M⁻¹ s⁻¹; the t½ turned out to be 2.7 min.

These data come from US20240425587A1 (Alector, published 2024).
